Laboratory results taken from paper PMC9396398, “Crystal structure of Ankyrin-G in complex with a fragment of Neurofascin reveals binding mechanisms required for integrity of the axon initial segment” (The Journal of Biological Chemistry, 2022).
Where a chain is given by its changes, count along the chain named.

Columns and labels:
AnkG R1-24 H384A = target: T1, AnkG R1-24 H384A (Rattus norvegicus); assay: ITC
T1 chain: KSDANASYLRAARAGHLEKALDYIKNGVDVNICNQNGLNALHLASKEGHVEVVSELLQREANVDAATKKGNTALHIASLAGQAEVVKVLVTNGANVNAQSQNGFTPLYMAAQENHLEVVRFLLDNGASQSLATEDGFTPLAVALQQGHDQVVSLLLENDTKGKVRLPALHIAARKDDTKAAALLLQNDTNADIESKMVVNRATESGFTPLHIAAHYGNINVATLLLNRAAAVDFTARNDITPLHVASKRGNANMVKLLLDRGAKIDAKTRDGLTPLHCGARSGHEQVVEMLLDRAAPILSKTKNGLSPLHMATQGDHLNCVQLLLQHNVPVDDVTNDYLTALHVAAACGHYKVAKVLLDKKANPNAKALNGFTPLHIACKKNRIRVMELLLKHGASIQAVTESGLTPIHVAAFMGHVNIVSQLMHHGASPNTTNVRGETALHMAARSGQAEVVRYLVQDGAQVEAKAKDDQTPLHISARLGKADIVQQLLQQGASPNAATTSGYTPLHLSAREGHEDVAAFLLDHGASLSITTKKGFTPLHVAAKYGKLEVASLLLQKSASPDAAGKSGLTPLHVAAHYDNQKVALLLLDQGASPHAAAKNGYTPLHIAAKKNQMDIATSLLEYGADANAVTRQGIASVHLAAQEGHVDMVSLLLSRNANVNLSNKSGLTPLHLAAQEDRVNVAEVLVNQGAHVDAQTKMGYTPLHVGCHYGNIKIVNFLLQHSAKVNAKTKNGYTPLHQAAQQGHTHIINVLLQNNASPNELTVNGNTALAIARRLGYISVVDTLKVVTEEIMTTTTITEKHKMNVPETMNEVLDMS

AnkG R1-24 R318A, Q351A = target: T2, AnkG R1-24 R318A, Q351A (Rattus norvegicus); assay: ITC
T2 chain: T1 chain with R281A, Q314A, A347H

[1] = target: T3, AnkG R8-16 (AnkG 275 to 571) (UniProt O70511 275-571); assay: ITC; VP-ITC at 25 °C; 50 mM Tris, 100 mM NaCl, 1 mM EDTA, 1 mM DTT, pH 7.8; Nfasc proteins (200 μM) in the syringe, AnkG proteins (20 μM) in the cell; one-site binding model; settings: both partners purified
T3 construct: Ankyrin-G (AnkG), ANK repeats 8-16, residues 275-571 (limits are told for the crystallisation construct); In the crystal it stood fused behind the Nfasc ABD; also called eighth to sixteenth ANK repeats; source: E. coli BL21 (DE3), purified (Ni-NTA, size-exclusion chromatography)
T3 sequence (looked up): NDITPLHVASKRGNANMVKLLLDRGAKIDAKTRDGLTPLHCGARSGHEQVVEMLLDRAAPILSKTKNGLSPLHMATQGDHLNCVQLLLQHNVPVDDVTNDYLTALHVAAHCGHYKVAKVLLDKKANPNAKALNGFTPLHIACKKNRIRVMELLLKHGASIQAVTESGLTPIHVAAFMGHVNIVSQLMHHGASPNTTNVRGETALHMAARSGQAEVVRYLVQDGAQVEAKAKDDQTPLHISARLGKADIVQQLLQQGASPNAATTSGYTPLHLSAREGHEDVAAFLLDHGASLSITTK

B1: Nfasc ankyrin-binding domain (ABD, residues 1187-1214) (domain or fragment, UniProt P97685 1187-1214, looked up)
chain: SDDSLVDYGEGGEGQFNEDGSFIGQYTV
notes: also called Nfasc ABD; source: E. coli BL21 (DE3), purified (Ni-NTA, size-exclusion chromatography)
Kd (AnkG R1-24 H384A): 1700 nM
Kd (AnkG R1-24 R318A, Q351A): 670 nM
Kd [1]: ~1200 nM
